B1: FTEQWTDGY (SEQ ID NO: 408) (peptide)
peptide: FTEQWTDGY
B2: KTDESLTKY (SEQ ID NO: 414) (peptide)
peptide: KTDESLTKY
B3: LLDPRSYHTY (SEQ ID NO: 415) (peptide)
peptide: LLDPRSYHTY
B4: LSDPSGPKSY (SEQ ID NO: 418) (peptide)
peptide: LSDPSGPKSY
B5: NLDEEKQLLY (SEQ ID NO: 424) (peptide)
peptide: NLDEEKQLLY
B6: NLDQATRVAY (SEQ ID NO: 426) (peptide)
peptide: NLDQATRVAY
B7: NVDPVQHTY (SEQ ID NO: 432) (peptide)
peptide: NVDPVQHTY
B8: STDNFNCKY (SEQ ID NO: 438) (peptide)
peptide: STDNFNCKY
B9: TLDAGKFQIY (SEQ ID NO: 439) (peptide)
peptide: TLDAGKFQIY
B10: TLDENPGVRY (SEQ ID NO: 440) (peptide)
peptide: TLDENPGVRY
B11: TTDTVIRSY (SEQ ID NO: 444) (peptide)
peptide: TTDTVIRSY
B12: VLDQGKITEY (SEQ ID NO: 445) (peptide)
peptide: VLDQGKITEY
B13: VVDEDHELIY (SEQ ID NO: 447) (peptide)
peptide: VVDEDHELIY
B14: YLDIPNPRY (SEQ ID NO: 448) (peptide)
peptide: YLDIPNPRY
B15: ECDMAFHIY (SEQ ID NO: 139) (peptide)
peptide: ECDMAFHIY
B16: ESDREELNY (SEQ ID NO: 140) (peptide)
peptide: ESDREELNY
B17: ESDVGVVVY (SEQ ID NO: 141) (peptide)
peptide: ESDVGVVVY
B18: EVAEPSVLFDLY (SEQ ID NO: 142) (peptide)
peptide: EVAEPSVLFDLY
B19: FIDYPKKEDY (SEQ ID NO: 143) (peptide)
peptide: FIDYPKKEDY
B20: KPGPPWAAF (SEQ ID NO: 238) (peptide)
peptide: KPGPPWAAF
B21: YVPSASLFML (SEQ ID NO: 239) (peptide)
peptide: YVPSASLFML
B22: SPREVTTVL (SEQ ID NO: 240) (peptide)
peptide: SPREVTTVL
B23: SARLATDAL (SEQ ID NO: 241) (peptide)
peptide: SARLATDAL
B24: SPRWLPVSL (SEQ ID NO: 242) (peptide)
peptide: SPRWLPVSL
B25: RPIENRILIL (SEQ ID NO: 243) (peptide)
peptide: RPIENRILIL
B26: FPYVRDFVM (SEQ ID NO: 244) (peptide)
peptide: FPYVRDFVM
B27: TPLPAVIVL (SEQ ID NO: 246) (peptide)
peptide: TPLPAVIVL
B28: IPNWARQDL (SEQ ID NO: 248) (peptide)
peptide: IPNWARQDL
B29: VPSSRILQL (SEQ ID NO: 249) (peptide)
peptide: VPSSRILQL
B30: SPRDFLSGL (SEQ ID NO: 250) (peptide)
peptide: SPRDFLSGL
B31: VPRSSGQTV (SEQ ID NO: 251) (peptide)
peptide: VPRSSGQTV
B32: SPDIRNTTV (SEQ ID NO: 252) (peptide)
peptide: SPDIRNTTV
B33: NPFPHLITL (SEQ ID NO: 254) (peptide)
peptide: NPFPHLITL
B34: MPLLENLYL (SEQ ID NO: 255) (peptide)
peptide: MPLLENLYL
B35: SPRVPSIEL (SEQ ID NO: 256) (peptide)
peptide: SPRVPSIEL
B36: LPRIPFADV (SEQ ID NO: 257) (peptide)
peptide: LPRIPFADV
B37: LPRGPLASL (SEQ ID NO: 258) (peptide)
peptide: LPRGPLASL
B38: RPPAAGLRGISL (SEQ ID NO: 259) (peptide)
peptide: RPPAAGLRGISL
B39: HPAPYGDLL (SEQ ID NO: 263) (peptide)
peptide: HPAPYGDLL
B40: SPRQPPRLV (SEQ ID NO: 265) (peptide)
peptide: SPRQPPRLV
B41: YPLFRGINL (SEQ ID NO: 268) (peptide)
peptide: YPLFRGINL
B42: APRAPRLML (SEQ ID NO: 269) (peptide)
peptide: APRAPRLML
B43: APGPRFLVT (SEQ ID NO: 270) (peptide)
peptide: APGPRFLVT
B44: MPLPWSLALPL (SEQ ID NO: 272) (peptide)
peptide: MPLPWSLALPL
B45: RPRAPVTPA (SEQ ID NO: 281) (peptide)
peptide: RPRAPVTPA
B46: RPHSLSSEL (SEQ ID NO: 283) (peptide)
peptide: RPHSLSSEL
B47: FPSFLTNSL (SEQ ID NO: 285) (peptide)
peptide: FPSFLTNSL
B48: VPTLRSEL (SEQ ID NO: 286) (peptide)
peptide: VPTLRSEL
B49: VPENHSVAL (SEQ ID NO: 289) (peptide)
peptide: VPENHSVAL
B50: APYRPPDISL (SEQ ID NO: 290) (peptide)
peptide: APYRPPDISL
B51: SPQRLRGLL (SEQ ID NO: 291) (peptide)
peptide: SPQRLRGLL
B52: RPRSALPRLLLP (SEQ ID NO: 293) (peptide)
peptide: RPRSALPRLLLP
B53: GPTPNTGAAL (SEQ ID NO: 294) (peptide)
peptide: GPTPNTGAAL
B54: KPEGTRIAV (SEQ ID NO: 295) (peptide)
peptide: KPEGTRIAV
B55: MPMAGDMNGL (SEQ ID NO: 460) (peptide)
peptide: MPMAGDMNGL
B56: RPFHTRATV (SEQ ID NO: 462) (peptide)
peptide: RPFHTRATV
B57: TPKAGPTL (SEQ ID NO: 463) (peptide)
peptide: TPKAGPTL
B58: YPRPGTPAA (SEQ ID NO: 464) (peptide)
peptide: YPRPGTPAA
B59: VPRPIFSQL (SEQ ID NO: 465) (peptide)
peptide: VPRPIFSQL
B60: APYKSVTSL (SEQ ID NO: 466) (peptide)
peptide: APYKSVTSL
B61: KPFSSFTSM (SEQ ID NO: 467) (peptide)
peptide: KPFSSFTSM
B62: SPMYGQAGL (SEQ ID NO: 468) (peptide)
peptide: SPMYGQAGL
B63: SPNSYFRVL (SEQ ID NO: 470) (peptide)
peptide: SPNSYFRVL
B64: KPRPDVTNEL (SEQ ID NO: 471) (peptide)
peptide: KPRPDVTNEL
B65: NPRATDAQL (SEQ ID NO: 472) (peptide)
peptide: NPRATDAQL
B66: LPRALLSSL (SEQ ID NO: 473) (peptide)
peptide: LPRALLSSL
B67: LPRLLPAL (SEQ ID NO: 474) (peptide)
peptide: LPRLLPAL
B68: RPHKPGLYL (SEQ ID NO: 475) (peptide)
peptide: RPHKPGLYL

These binders were tested against T1, HLA-A*01 (human) (assay: UV peptide-exchange ELISA; +++ = yield >50%).
T1 construct: MHC monomer made peptide-receptive by UV cleavage of a UV-sensitive ligand; also called peptide-receptive MHC class I monomer
Text: Candidate peptides for T cell based therapies according to the present invention were further tested for their MHC binding capacity (affinity). The individual peptide-MHC complexes were produced by UV-ligand exchange, where a UV-sensitive peptide is cleaved upon UV-irradiation, and exchanged with the peptide of interest as analyzed. Only peptide candidates that can effectively bind and stabilize the peptide-receptive MHC molecules prevent dissociation of the MHC complexes. To determine the yield of the exchange reaction, an ELISA was performed based on the detection of the light chain (β2m) of stabilized MHC complexes. The assay was performed as generally described in Rodenko et al. (Rodenko et al., 2006).
96 well MAXISorp plates (NUNC) were coated over night with 2 ug/ml streptavidin in PBS at room temperature, washed 4× and blocked for 1 h at 37° C. in 2% BSA containing blocking buffer. […] Peptide-MHC monomers of the UV-exchange reaction were diluted 100-fold in blocking buffer. Samples were incubated for 1 h at 37° C., washed four times, incubated with 2 ug/ml HRP conjugated anti-β2m for 1h at 37° C., washed again and detected with TMB solution that is stopped with […]. Absorption was measured at 450 nm.
With B1 the peptide exchange yield was 50 to 75%. In the case of B2, the peptide exchange yield is reported as 50 to 75%. With B3 the peptide exchange yield was 50 to 75%. For B4, the peptide exchange yield was 50 to 75%. Binder B5 has a peptide exchange yield of 50 to 75%. B6 gave a peptide exchange yield of 50 to 75%. B7 gave a peptide exchange yield of 50 to 75%. With B8 the peptide exchange yield was 50 to 75%. B9 was tested, and the peptide exchange yield was 50 to 75%. Work on B10 yielded a peptide exchange yield of 50 to 75%. Work on B11 yielded a peptide exchange yield of 50 to 75%. B12 gave a peptide exchange yield of 50 to 75%. B13 was tested, and the peptide exchange yield was 50 to 75%. B14 was tested, and the peptide exchange yield was 50 to 75%. With B15 the peptide exchange yield was 50 to 75%. B16 gave a peptide exchange yield of 50 to 75%. Binder B17 has a peptide exchange yield of 50 to 75%. With B18 the peptide exchange yield was 50 to 75%. B19 gave a peptide exchange yield of 50 to 75%.

What follows are binders tested against T2, HLA-B*07 (human) (assay: UV peptide-exchange ELISA; ++++ = yield >75%).
T2 construct: MHC monomer made peptide-receptive by UV cleavage of a UV-sensitive ligand; also called peptide-receptive MHC class I monomer
B20 was tested, and the peptide exchange yield was > 75%. With B21 the peptide exchange yield was > 75%. B22 was tested, and the peptide exchange yield was > 75%. In the case of B23, the peptide exchange yield is reported as > 75%. B24 was tested, and the peptide exchange yield was > 75%. For B25, the peptide exchange yield was > 75%. For B26, the peptide exchange yield was > 75%. With B27 the peptide exchange yield was > 75%. With B28 the peptide exchange yield was > 75%. In the case of B29, the peptide exchange yield is reported as > 75%. With B30 the peptide exchange yield was > 75%. For B31, the peptide exchange yield was > 75%. With B32 the peptide exchange yield was > 75%. For B33, the peptide exchange yield was > 75%. B34 was tested, and the peptide exchange yield was > 75%. For B35, the peptide exchange yield was > 75%. With B36 the peptide exchange yield was > 75%. With B37 the peptide exchange yield was > 75%. With B38 the peptide exchange yield was > 75%. In the case of B39, the peptide exchange yield is reported as > 75%. For B40, the peptide exchange yield was > 75%. In the case of B41, the peptide exchange yield is reported as > 75%. B42 was tested, and the peptide exchange yield was > 75%. B43 was tested, and the peptide exchange yield was > 75%. B44 was tested, and the peptide exchange yield was > 75%. For B45, the peptide exchange yield was > 75%. With B46 the peptide exchange yield was > 75%. B47 was tested, and the peptide exchange yield was > 75%. For B48, the peptide exchange yield was > 75%. B49 was tested, and the peptide exchange yield was > 75%. B50 was tested, and the peptide exchange yield was > 75%. For B51, the peptide exchange yield was > 75%. In the case of B52, the peptide exchange yield is reported as > 75%. In the case of B53, the peptide exchange yield is reported as > 75%. B54 was tested, and the peptide exchange yield was > 75%. With B55 the peptide exchange yield was > 75%. For B56, the peptide exchange yield was > 75%. With B57 the peptide exchange yield was > 75%. With B58 the peptide exchange yield was > 75%. For B59, the peptide exchange yield was > 75%. With B60 the peptide exchange yield was > 75%. With B61 the peptide exchange yield was > 75%. B62 was tested, and the peptide exchange yield was > 75%. In the case of B63, the peptide exchange yield is reported as > 75%. With B64 the peptide exchange yield was > 75%. For B65, the peptide exchange yield was > 75%. With B66 the peptide exchange yield was > 75%. With B67 the peptide exchange yield was > 75%. For B68, the peptide exchange yield was > 75%.
